Patent publication US20240270821A1, “GIP/GLP1/GCG TRI-RECEPTOR AGONISTS AND USES THEREOF” (priority 2023, published 2024)

T1: human GIP receptor (human) (UniProt P48546)
T1 sequence (looked up): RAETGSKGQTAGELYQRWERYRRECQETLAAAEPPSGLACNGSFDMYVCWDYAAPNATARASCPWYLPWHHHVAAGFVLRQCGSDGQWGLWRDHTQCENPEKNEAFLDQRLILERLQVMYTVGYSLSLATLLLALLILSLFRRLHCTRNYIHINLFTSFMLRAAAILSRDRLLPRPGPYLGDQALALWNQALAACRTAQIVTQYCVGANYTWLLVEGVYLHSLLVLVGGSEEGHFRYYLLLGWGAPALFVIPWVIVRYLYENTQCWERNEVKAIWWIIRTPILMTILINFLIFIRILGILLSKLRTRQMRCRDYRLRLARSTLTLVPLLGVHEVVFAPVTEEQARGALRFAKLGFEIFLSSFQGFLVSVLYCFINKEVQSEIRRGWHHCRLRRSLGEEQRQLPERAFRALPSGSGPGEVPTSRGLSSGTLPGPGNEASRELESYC


Assays:
Test in all cases: cell-based or functional assay
[1] = target: hGLP-1R (Homo sapiens, UniProt P43220)
Sequence of hGLP-1R (P43220 24-463): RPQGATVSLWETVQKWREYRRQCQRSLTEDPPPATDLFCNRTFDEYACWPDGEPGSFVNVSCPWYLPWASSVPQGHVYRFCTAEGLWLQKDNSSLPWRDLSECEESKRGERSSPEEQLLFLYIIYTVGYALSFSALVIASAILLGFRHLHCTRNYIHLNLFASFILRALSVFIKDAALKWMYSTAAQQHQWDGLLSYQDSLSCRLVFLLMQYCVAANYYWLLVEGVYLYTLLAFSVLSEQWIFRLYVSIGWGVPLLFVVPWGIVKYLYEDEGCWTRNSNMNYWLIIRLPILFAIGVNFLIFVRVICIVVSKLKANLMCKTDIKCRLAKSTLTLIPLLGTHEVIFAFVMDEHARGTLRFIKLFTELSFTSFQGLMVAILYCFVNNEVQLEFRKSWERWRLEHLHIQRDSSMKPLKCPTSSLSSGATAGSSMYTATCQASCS

[2] = target: human glucagon receptor (human) (UniProt P47871)
Sequence of human glucagon receptor (human) (P47871 26-477): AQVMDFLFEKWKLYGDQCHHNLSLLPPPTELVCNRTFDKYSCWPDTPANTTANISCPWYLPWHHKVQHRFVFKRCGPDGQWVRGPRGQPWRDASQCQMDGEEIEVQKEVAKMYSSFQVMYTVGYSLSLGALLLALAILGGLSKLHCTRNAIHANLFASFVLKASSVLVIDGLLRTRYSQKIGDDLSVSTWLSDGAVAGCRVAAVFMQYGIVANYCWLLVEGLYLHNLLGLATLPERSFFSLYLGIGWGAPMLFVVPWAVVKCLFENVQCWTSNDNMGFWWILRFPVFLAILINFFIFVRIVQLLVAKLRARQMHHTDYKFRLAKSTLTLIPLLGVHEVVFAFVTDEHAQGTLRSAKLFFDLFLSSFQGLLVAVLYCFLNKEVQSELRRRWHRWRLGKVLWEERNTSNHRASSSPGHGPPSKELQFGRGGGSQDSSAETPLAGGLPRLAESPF

[3] = target: T1, human GIP receptor (human)

Row | Binder | cAMP Rel EC50, nM (1% HSA) [1] [nM] | cAMP Rel EC50, nM (1% HSA) [2] [nM] | cAMP Rel EC50, nM (1% HSA) [3] [nM] | Relative cAMP EC50 [1] [nM] | Relative cAMP EC50 [2] [nM] | Relative cAMP EC50 [3] [nM]
1 | YXQGTFTSDXSRXLDKKAQXAFIEXLIEGGPSSGAPPPSGS (non-natural residues, AEEA-γGlu-C18 diacid lysine acylation, C-terminal amide; synthetic construct; SITE 2: note = 2-Aminoisobutyric Acid; SITE 10: note = 3-(4-Pyridyl)-L-alanine; SITE 13: note = alpha-methyl-leucine; SITE 17: note = Lysine is chemically modified through conjugation of the epsilon-amino group of the Lysine side chain with (2-[2-(2-Amino-ethoxy)-ethoxy]-acetyl)) [Example 950] | 328 | 327 | 18.1 | – | – | –
2 | YXQGTFTSDXSQXLDKKAQXAFIEYLIAGGPSSGEPPPSGS (non-natural residues; lipidated Lys (γGlu)2-C18 diacid; C-term amide; synthetic construct; SITE 2: note = 2-Aminoisobutyric Acid; SITE 10: note = 3-(4-Pyridyl)-L-alanine; SITE 13: note = alpha-methyl-leucine; SITE 17: note = Lysine is chemically modified through conjugation of the epsilon-amino group of the Lysine side chain with (gamma-Glu)2-CO-(CH2)16-CO2H; SITE 20:) [Example 968] | 103 | 625 | 11.7 | 1.04 | 4.72 | 0.0928
3 | YXQGTFTSDXSRXLDKKAQXAFIEXLIEGGPSSGAPPPSGS (Aib, 4Pal, αMeL, Me4Pal; lipidated Lys; C-terminal amide; synthetic construct; SITE 2: note = 2-Aminoisobutyric Acid; SITE 10: note = 3-(4-Pyridyl)-L-alanine; SITE 13: note = alpha-methyl-leucine; SITE 17: note = Lysine is chemically modified through conjugation of the epsilon-amino group of the Lysine side chain with (gamma-Glu)2-CO-(CH2)16-CO2H; SITE 20:) [Example 953] | 347 | 275 | 10.9 | – | – | –
4 | YXQGTFTSDXSXXLDKKAQXAFIEXLIEGGPSSGAPPPSGS (acylated Lys, C-terminal amide, non-natural residues; synthetic construct; SITE 2: note = 2-Aminoisobutyric Acid; SITE 10: note = 3-(4-Pyridyl)-L-alanine; SITE 12: note = L-ornithine; SITE 13: note = alpha-methyl-leucine; SITE 17: note = Lysine is chemically modified through conjugation of the epsilon-amino group of the Lysine side chain with (gamma-Gl)) [Example 952] | 439 | 266 | 16.6 | – | – | –
5 | YXQGTFTSDXSQXLDKKAQXAFIEYLIAGGPSSGAPPPEGS (non-natural residues, C18 diacid acylation; synthetic construct; SITE 2: note = 2-Aminoisobutyric Acid; SITE 10: note = 3-(4-Pyridyl)-L-alanine; SITE 13: note = alpha-methyl-leucine; SITE 17: note = Lysine is chemically modified through conjugation of the epsilon-amino group of the Lysine side chain with (gamma-Glu)2-CO-(CH2)16-CO2H; SITE 20:) [Example 969] | 113 | 660 | 12.6 | 1.21 | 5.48 | 0.142
6 | YXQGTFTSDXSQXLDKKAQXAFIEXLIEGGPSSGAPPPSGS (Aib, 4Pal, Me4Pal, αMeL; lipidated Lys; C-terminal amide; synthetic construct; SITE 2: note = 2-Aminoisobutyric Acid; SITE 10: note = 3-(4-Pyridyl)-L-alanine; SITE 13: note = alpha-methyl-leucine; SITE 17: note = Lysine is chemically modified through conjugation of the epsilon-amino group of the Lysine side chain with (gamma-Glu)2-CO-(CH2)16-CO2H; SITE 20:) [Example 951] | 382 | 657 | 18.2 | – | – | –
7 | YXQGTFTSDXSQXLDKKAQXAFIEXLIEGGPSSGAPPPSGSEE (non-natural residues; Lys acylated C18 diacid; C-terminal amide; synthetic construct; SITE 2: note = 2-Aminoisobutyric Acid; SITE 10: note = 3-(4-Pyridyl)-L-alanine; SITE 13: note = alpha-methyl-leucine; SITE 17: note = Lysine is chemically modified through conjugation of the epsilon-amino group of the Lysine side chain with (2-[2-(2-Amino-ethoxy)-ethoxy]-acetyl)) [Example 954] | 357 | 450 | 35.3 | – | – | –
8 | YXQGTFTSDXSQXLDKKAQXAFIEYLIAGGPSSGEPPPSGSGE (non-natural residues; (γGlu)2-C18 diacid acyl; synthetic construct; SITE 2: note = 2-Aminoisobutyric Acid; SITE 10: note = 3-(4-Pyridyl)-L-alanine; SITE 13: note = alpha-methyl-leucine; SITE 17: note = Lysine is chemically modified through conjugation of the epsilon-amino group of the Lysine side chain with (gamma-Glu)2-CO-(CH2)16-CO2H; SITE 20:) [Example 971] | 294 | 1340 | 30.2 | 3.46 | 8.26 | 0.298
9 | YXQGTFTSDXSRXLDKKAQXAFIEXLIEGGPSSGAPPPSGSEE (acylated lysine AEEA-γGlu-C18 diacid; non-natural residues; C-terminal amide; synthetic construct; SITE 2: note = 2-Aminoisobutyric Acid; SITE 10: note = 3-(4-Pyridyl)-L-alanine; SITE 13: note = alpha-methyl-leucine; SITE 17: note = Lysine is chemically modified through conjugation of the epsilon-amino group of the Lysine side chain with (2-[2-(2-Amino-ethoxy)-ethoxy]-acetyl)) [Example 956] | 643 | 406 | 32.1 | – | – | –
10 | YXQGTFTSDXSRXLDKKAQXAFIEYLIAGGPSSGAPPPSGSEE (Aib, 4Pal, αMeL, Me4Pal; γGlu2-C18 diacid Lys; C-term amide; synthetic construct; SITE 2: note = 2-Aminoisobutyric Acid; SITE 10: note = 3-(4-Pyridyl)-L-alanine; SITE 13: note = alpha-methyl-leucine; SITE 17: note = Lysine is chemically modified through conjugation of the epsilon-amino group of the Lysine side chain with (gamma-Glu)2-CO-(CH2)16-CO2H; SITE 20:) [Example 962] | 132 | 485 | 9.71 | 1.36 | 3.13 | 0.0972
11 | YXQGTFTSDXSXXLDXKAQXXFIEXLIEGGPSSGAPPPSGSEE (Aib, 4Pal, Orn, Me4Pal, alpha-methyl-Tyr, lipidated Lys, amide; synthetic construct; SITE 2: note = 2-Aminoisobutyric Acid; SITE 10: note = 3-(4-Pyridyl)-L-alanine; SITE 12: note = L-ornithine; SITE 13: note = alpha-methyl-leucine; SITE 16: note = L-ornithine; SITE 17: note = Lysine is chemically modified through conjugation of the epsilon-amino group of the Lys) [Example 974] | 283 | 870 | 80.9 | – | – | –
12 | YXQGTFTSDXSXXLDXKAQXEFIEXLIEGGPSSGAPPPSGSEE (Aib, 4Pal, Orn, Me4Pal, αMeY; acylated lysine; amide; synthetic construct; SITE 2: note = 2-Aminoisobutyric Acid; SITE 10: note = 3-(4-Pyridyl)-L-alanine; SITE 12: note = L-ornithine; SITE 13: note = alpha-methyl-leucine; SITE 16: note = L-ornithine; SITE 17: note = Lysine is chemically modified through conjugation of the epsilon-amino group of the Lys) [Example 973] | 1140 | 2270 | 60.1 | – | – | –
